Test results published in EP4635976A1 (Medigene Immunotherapies GmbH, dated 2025).

How the values were obtained:
Test in all cases: cell-based or functional assay
[1] = biological target: mismatched peptide #221 …
[2] = biological target: mismatched peptide #79 …
[3] = biological target: mismatched peptide #323 …
[4] = biological target: mismatched peptide #243 …
[5] = biological target: mismatched peptide #247 …
[6] = biological target: mismatched peptide #15 …
[7] = biological target: mismatched peptide #278 …
[8] = biological target: mismatched peptide #244 …
[9] = biological target: mismatched peptide #84 …
[10] = biological target: mismatched peptide #160 …
[11] = biological target: mismatched peptide #62 …
[12] = biological target: mismatched peptide #324 …
[13] = biological target: mismatched peptide #41 …
[14] = biological target: mismatched peptide #76 …
[15] = biological target: mismatched peptide #228 …
[16] = biological target: mismatched peptide #257 …
[17] = biological target: mismatched peptide #246 …
[18] = biological target: mismatched peptide #31 …
[19] = biological target: mismatched peptide #45 …
[20] = biological target: mismatched peptide #116 …
[21] = biological target: mismatched peptide #236 …
[22] = biological target: mismatched peptide #265 …
[23] = biological target: mismatched peptide #47 …
[24] = biological target: mismatched peptide #280 …
[25] = biological target: mismatched peptide #9 …
[26] = biological target: mismatched peptide #240 …
[27] = biological target: mismatched peptide #239 …

B1: NY-ESO specific TCR (T11.8-10-17) with Uni-TABS epitope V1 at A245 in loop 2 of TRBC (TCR)
TCR alpha: QKEVEQNSGPLSVPEGAIASLNCTYSDRGSQSFFWYRQYSGKSPELIMFIYSNGDKEDGRFTAQLNKASQYVSLLIRDSQPSDSATYLCAADDKIIFGKGTRLHILPNIQNPDPAVYQLRDSKSSDKSVCLFTDFDSQTNVSQSKDSDVYITDKTVLDMRSMDFKSNSAVAWSNKSDFACANAFNNSIIPEDTFFPSSDVPCDVKLVEKSFETDTNLNFQNLSVIGFRILLLKVAGFNLLMTLRLWSS
TCR beta: DAGVIQSPRHEVTEMGQEVTLRCKPISGHDYLFWYRQTMMRGLELLIYFNNNVPIDDSGMPEDRFSAKMPNASFSTLKIQPSEPRDSAVYFCASSRGGSGYTFGSGTRLTVVEDLNKVFPPEVAVFEPSKAEIAHTQKATLVCLATGFFPDHVELSWWVNGKEVHSGVSTDPQPLKEQPALNDSRYCLSSRLRVSATFWQNPRNHFRCQVQFYGLSENDEWTQDRAGSGDKGEVPKDRFSAGSGKPVTQIVSAEAWGRADCGITSASYHQGVLSATILYEILLGKATLYAVLVSALVLMAMVKRKDF
IFN-γ release (IFNg-ELISA), donor MIT 045 [1]: 0 pg/mL
IFN-γ release (IFNg-ELISA), donor MIT 045 [2]: 0 pg/mL
IFN-γ release (IFNg-ELISA), donor MIT 045 [3]: 0 pg/mL
IFN-γ release (IFNg-ELISA), donor MIT 045 [4]: 0 pg/mL
IFN-γ release (IFNg-ELISA), donor MIT 045 [5]: 0 pg/mL
IFN-γ release (IFNg-ELISA), donor MIT 045 [6]: 0 pg/mL
IFN-γ release (IFNg-ELISA), donor MIT 045 [7]: 0 pg/mL
IFN-γ release (IFNg-ELISA), donor MIT 045 [8]: 0 pg/mL
IFN-γ release (IFNg-ELISA), donor MIT 045 [9]: 0 pg/mL
IFN-γ release (IFNg-ELISA), donor MIT 045 [10]: 0 pg/mL
IFN-γ release (IFNg-ELISA), donor MIT 045 [11]: 0 pg/mL
IFN-γ release (IFNg-ELISA), donor MIT 045 [12]: 0 pg/mL
IFN-γ release (IFNg-ELISA), donor MIT 045 [13]: 0 pg/mL
IFN-γ release (IFNg-ELISA), donor MIT 045 [14]: 0 pg/mL
IFN-γ release (IFNg-ELISA), donor MIT 045 [15]: 0 pg/mL
IFN-γ release (IFNg-ELISA), donor MIT 045 [16]: 0 pg/mL
IFN-γ release (IFNg-ELISA), donor MIT 045 [17]: 0 pg/mL
IFN-γ release (IFNg-ELISA), donor MIT 045 [18]: 0 pg/mL
IFN-γ release (IFNg-ELISA), donor MIT 045 [19]: 0 pg/mL

B2: NY-ESO specific TCR (T11.8-10-17) with Uni-TABS epitope V1 at A199 in loop 1 of TRBC (TCR)
TCR alpha: QKEVEQNSGPLSVPEGAIASLNCTYSDRGSQSFFWYRQYSGKSPELIMFIYSNGDKEDGRFTAQLNKASQYVSLLIRDSQPSDSATYLCAADDKIIFGKGTRLHILPNIQNPDPAVYQLRDSKSSDKSVCLFTDFDSQTNVSQSKDSDVYITDKTVLDMRSMDFKSNSAVAWSNKSDFACANAFNNSIIPEDTFFPSSDVPCDVKLVEKSFETDTNLNFQNLSVIGFRILLLKVAGFNLLMTLRLWSS
TCR beta: DAGVIQSPRHEVTEMGQEVTLRCKPISGHDYLFWYRQTMMRGLELLIYFNNNVPIDDSGMPEDRFSAKMPNASFSTLKIQPSEPRDSAVYFCASSRGGSGYTFGSGTRLTVVEDLNKVFPPEVAVFEPSKAEIAHTQKATLVCLATGFFPDHVELSWWVNGKEVHSGVSTDPQPLKEQPAGSGDKGEVPKDRFSAGSGLNDSRYCLSSRLRVSATFWQNPRNHFRCQVQFYGLSENDEWTQDRAKPVTQIVSAEAWGRADCGITSASYHQGVLSATILYEILLGKATLYAVLVSALVLMAMVKRKDF
IFN-γ release (IFNg-ELISA), donor MIT 045 [20]: 257 pg/mL
IFN-γ release (IFNg-ELISA), donor MIT038 [1]: 900 pg/mL
IFN-γ release (IFNg-ELISA), donor MIT 045 [1]: 889 pg/mL
IFN-γ release (IFNg-ELISA), donor MIT038 [21]: 476 pg/mL
IFN-γ release (IFNg-ELISA), donor MIT 045 [21]: 400 pg/mL
IFN-γ release (IFNg-ELISA), donor MIT038 [22]: 400 pg/mL
IFN-γ release (IFNg-ELISA), donor MIT038 [2]: 370 pg/mL
IFN-γ release (IFNg-ELISA), donor MIT038 [3]: 3170 pg/mL
IFN-γ release (IFNg-ELISA), donor MIT 045 [3]: 3000 pg/mL
IFN-γ release (IFNg-ELISA), donor MIT038 [4]: 499 pg/mL
IFN-γ release (IFNg-ELISA), donor MIT 045 [4]: 356 pg/mL
IFN-γ release (IFNg-ELISA), donor MIT 045 [23]: 530 pg/mL
IFN-γ release (IFNg-ELISA), donor MIT038 [24]: 256 pg/mL
IFN-γ release (IFNg-ELISA), donor MIT038 [5]: 537 pg/mL
IFN-γ release (IFNg-ELISA), donor MIT 045 [5]: 372 pg/mL
IFN-γ release (IFNg-ELISA), donor MIT038 [6]: 520 pg/mL
IFN-γ release (IFNg-ELISA), donor MIT 045 [6]: 306 pg/mL
IFN-γ release (IFNg-ELISA), donor MIT038 [25]: 258 pg/mL
IFN-γ release (IFNg-ELISA), donor MIT038 [26]: 386 pg/mL
IFN-γ release (IFNg-ELISA), donor MIT038 [7]: 442 pg/mL
IFN-γ release (IFNg-ELISA), donor MIT038 [8]: 387 pg/mL
IFN-γ release (IFNg-ELISA), donor MIT 045 [8]: 261 pg/mL
IFN-γ release (IFNg-ELISA), donor MIT038 [27]: 312 pg/mL
IFN-γ release (IFNg-ELISA), donor MIT038 [10]: 2800 pg/mL
IFN-γ release (IFNg-ELISA), donor MIT 045 [10]: 2840 pg/mL
IFN-γ release (IFNg-ELISA), donor MIT038 [11]: 942 pg/mL
IFN-γ release (IFNg-ELISA), donor MIT 045 [11]: 918 pg/mL
IFN-γ release (IFNg-ELISA), donor MIT038 [12]: 757 pg/mL
IFN-γ release (IFNg-ELISA), donor MIT 045 [12]: 628 pg/mL
IFN-γ release (IFNg-ELISA), donor MIT038 [13]: 555 pg/mL
IFN-γ release (IFNg-ELISA), donor MIT 045 [13]: 680 pg/mL
IFN-γ release (IFNg-ELISA), donor MIT038 [14]: 825 pg/mL
IFN-γ release (IFNg-ELISA), donor MIT 045 [14]: 939 pg/mL
IFN-γ release (IFNg-ELISA), donor MIT038 [15]: 484 pg/mL
IFN-γ release (IFNg-ELISA), donor MIT 045 [15]: 1200 pg/mL
IFN-γ release (IFNg-ELISA), donor MIT038 [16]: 407 pg/mL
IFN-γ release (IFNg-ELISA), donor MIT038 [17]: 345 pg/mL
IFN-γ release (IFNg-ELISA), donor MIT038 [18]: 2420 pg/mL
IFN-γ release (IFNg-ELISA), donor MIT 045 [18]: 1560 pg/mL
IFN-γ release (IFNg-ELISA), donor MIT038 [19]: 1410 pg/mL
IFN-γ release (IFNg-ELISA), donor MIT 045 [19]: 1520 pg/mL
